{"source": "patent US20190046600", "key": {"Ac-DEVD-CHO": {"target": "T1, Ac-DEVD-CHO", "T1 chain": "DEVD"}, "[1]": {"target": "T2, HILR-030 (cyclo-[Pro-Arg-Gly-Pro-Arg-Pro-Val-Trp-Trp-Gpa-Gpa-Trp-Trp-Gpa-Gpa-Trp-Trp])", "T2 chain": "PRGPRPVWWXXWWXXWW"}}}
{"protein": "recombinant human caspase 3 enzyme (protein) SGISLDNSYKMDYPEMGLCIIINNKNFHKSTGMTSRSGTDVDAANLRETFRNLKYEVRNKNDLTREEIVELMRDVSKEDHSKRSSFVCVLLSHGEEGIIFGTNGPVDLKKITNFFRGDRCRSLTGKPKLFIIQACRGTELDCGIETDSGVDDDMACHKIPVEADFLYAYSTAPGYYSWRNSKDGSWFIQSLCAMLKQYADKLEFMHILTRVNRKVATEFESFSFDATFHAKKQIPCIVSMLTKELYFYH", "values": [{"measurement": "caspase-3 activity (Apo-ONE Homogeneous Caspase-3/7 assay, 2 h co-incubation with substrate or enzyme)", "setting": "Ac-DEVD-CHO", "value": "Both DEVD-CHO and HILR-030 inhibited the caspase-3 activity in a dose-dependent fashion"}, {"measurement": "caspase-3 activity (Apo-ONE Homogeneous Caspase-3/7 assay, cleavage of Z-DEVD-R110, recombinant enzyme)", "setting": "Ac-DEVD-CHO", "value": "Ac-DEVD-CHO inhibited the activity of caspase-3 in a dose-dependent manner, giving rise to IC50s within the expected range according to the inhibitor specification sheet"}, {"measurement": "caspase-3 activity (Apo-ONE Homogeneous Caspase-3/7 assay, 2 h co-incubation with substrate or enzyme)", "setting": "[1]", "value": "Both DEVD-CHO and HILR-030 inhibited the caspase-3 activity in a dose-dependent fashion"}]}
